Data: the supplement of paper PMC9170038

How the values were obtained:
Conditions in all cases: FMN input: 0 or 200 uM; Eterna round: R93 (includes R88 designs)
MS2 coat protein [1] = assay: apparent KD of MS2 coat protein, switch ON state; designed switch direction (-1 OFF switch, 1 ON switch): 1; higher = weaker reporter binding
Summary of the method: (§1)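 The designed RNA switches were transcribed on-chip from Illumina sequencing clusters. In 100 mM Tris-HCl pH 7.5, 80 mM KCl and 4 mM MgCl2, without or with constant ligand, they were titrated with SNAP-549-labelled MS2 coat protein from 0.7 or 1.5 nM to 3 µM in twofold steps. Apparent KD is the per-design median of normalised cluster binding-curve fits.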

MS2 coat protein [2] = assay: apparent KD of MS2 coat protein, switch OFF state (with FMN for OFF switches, without FMN for ON switches); designed switch direction (-1 OFF switch, 1 ON switch): 1; higher = weaker reporter binding
Summary of the method: as §1

MS2 coat protein [3] = assay: apparent KD of MS2 coat protein, switch ON state; designed switch direction (-1 OFF switch, 1 ON switch): -1; higher = weaker reporter binding
Summary of the method: as §1

MS2 coat protein [4] = assay: apparent KD of MS2 coat protein, switch OFF state (with FMN for OFF switches, without FMN for ON switches); designed switch direction (-1 OFF switch, 1 ON switch): -1; higher = weaker reporter binding
Summary of the method: as §1

Row | Sequence | apparent KD of MS2 coat protein (MS2 coat protein [1]) [nM] | apparent KD of MS2 coat protein (MS2 coat protein [2]) [nM] | apparent KD of MS2 coat protein (MS2 coat protein [3]) [nM] | apparent KD of MS2 coat protein (MS2 coat protein [4]) [nM]
1 | AAAAAACAUGAGGAUCACCCAUGUGCAAAAUUCGCAGGAUAUUCUUUUUUUAAAUGGGAGGGAGAAGGGUGUAAAA [Nob's Hobby 20 - Jieux - Same State 1] | 20.8 | 21.3 |  | 
2 | AAUAUAUUAAGCGAGGAUAUCGAGGAAAAAACAUGAGGAUCACCCAUGUGGGUAAAAAAAAAAAGUGAGAAGGUGCUUAAUAUAU [Samwise Clockwise 9 - Jieux - Same State 2] | 31.8 | 74.7 |  | 
3 | AGGAAACAUGAGGAUCACCCAUGUAAGAUAUACACAGGAUAUGCGAAAAGAAACAAAGAAGCAGAAGGGUGGAAAA [75%, Ex sub1, 11] | 16.5 | 31.6 |  | 
4 | GAAGAACAUGAGGAUCACCCAUGUGUAGAAGCAUGAGGAUAUGUAAGUCAAAGAAAAACGAUAGAAGGCAUGGAGA [JR_SS001_Sub1714] | 141 | 119 |  | 
5 | AUAAAACAUGAGGAUCACCCAUGUAGAAAUAUGGGAGGAUAUACGAAGACGAAAGUCAAAGUAGAAGGCCUAAAAG [Mat - Same State 1 - Meechl mod - D115] | 26.5 | 83.6 |  | 
6 | AAAAUAAAAUAAAAGGAUAUAAAAUAAAAAACAUGAGGAUCACCCAUGUGAAAACAUGAAAAAAAAAAGAAGGAAAAAUAAAAAA [SS2: 76 No MS2] | 21.3 | 31.6 |  | 
7 | CUGGACAUAGUACAGGAUAUAUGAAUAGUCACAUGAGGAUCACCCAUGUCCAUUUAUAUGGGCACAUAGAAGGGUGGUAGUUAAG [Mat - Same state - Malcolm Mod - D139] | 4.52 | 41.2 |  | 
8 | AACAAUCUAUCUGAGGAUAUCAUGUCAAAGACAUGAGGAUCACCCAUGUCUAGGAAAACUAGAUAUGAGAAGGCAGAUAGAUUGA [SS2 :P - 597] | 23.2 | 126 |  | 
9 | CAGGGACAUGAGGAUCACCCAUGUGGGAUUAUGGGAGGAUAUACAAAGACGAGAGUCAGAGUAGAAGGCCUAGGAC [salish99-ss1-128] | 37.3 | 85.7 |  | 
10 | AAAUAGUGCAUUAAGGAUAUGUCGCAUGACACAUGAGGAUCACCCAUGUGGUAACACAGAGGGUGGCAGAAGGUAGUGUGCAAAC [Mod 3 of Pariah 6 (Round1) by Hyphema] | 108 | 15.1 |  | 
11 | AAAAAACAUGAGGAUCACCCAUGUAAGGAUAUCGGAAAAGGAAAAAUAAAAAAGAAGACGAGAAGGUACACCAA [Mat - Exclusion 1 - Eli mod - D78] |  |  | 25.8 | 24
12 | AAAAGACAUGAGGAUCACCCAUGUUAGGAUAUGGAAAAACAAAAAAAAAAAAAAAAAACCAGAAGGAGCGAGGG [another 1 four] |  |  | 190 | 132
13 | AAAAAACAUGAGGAUCACCCAUGUGAGGAUAUUCAAAAAAAAAAAAAAAACACAAGAAGGAGAAGGCACAAAAA [Default title] |  |  | 29.6 | 73
14 | CUAGUACAUGAGGAUCACCCAUGUCAGGAUAUUGGAUAUGCCAUGGAAAACAUGUUUACAAGAAGGGACUAUAG [EX1 Malc#22] |  |  | 32.9 | 36.4
15 | GUGUACAGAGGAUAUACUAAAGCUAGGAAACUAGCAAGAUCACAUGAGGAUCACCCAUGUAGAAGGCUGUACAC [Ex2: 740] |  |  | 58.1 | 500
16 | AAGAACGCAGGAUAUACAUGAAAGAAAGAAAAGAAAAGAAAACAUGAGGAUCACCCAUGUAGAAGGGCGAAGAA [EteRNA is fun!] |  |  | 37.9 | 39.6
17 | ACUAUACGAGGAUAUGCUGUCAACACUAAGGAAUUCGUAUGACAUGAGGAUCACCCAUGUAGAAGGCGUAUACU [JR_Exc002_Sub510] |  |  | 23.3 | 27.7
18 | AAGAAGAGAGGAUAUACAUGAGGAUCACCCAUGUAAAAGAAAGAAGGGAAAGAGAAAAGUAGAAGGCUCAAGAA [Usermaatre-setpenamun Rudamun] |  |  | 25.6 | 31
19 | AAACCACAUGAGGAUCACCCAUGUCAGGAUAUGAACGAAAAUAAAUAAAAAUAAAAGUUCAGAAGGGACGAAAA [66%, Wbt, 15] |  |  | 39.2 | 37.2
20 | AAAUAGCAAGGAUAUACAUGAGGAUCACCCAUGUGAAAAAGGUAUGGAAUAGAAUAGAGUAGAAGGUGCAAAUA [Mod of Ex 3 Tesla 8 - Jieux - Exclusion 3] |  |  | 24.9 | 35.7
21 | AACAGUACAGGAUAUACAUGAGGAUCACCCAUGUGAAAAUUAAGUGGCGAACCACAAAGUAGAAGGGUACUGAA [Mat - Exclusion 3 - Eli mod - D56] |  |  | 38.7 | 79.3
